This is an account of results in paper PMC8396674.

What all share (assay): AUC; sedimentation velocity, 0.25 mg/mL (14.7 µM) protein with 7-fold molar excess of TbCl3, 20 °C, 50,000 rpm, c(s) analysis
Assay [1] deals with gC1q domain of human otolin-1 (hOtolC1q), wild type (human).
In assay [2] the target is gC1q domain of human otolin-1, natural variant Q426R (human).
In assay [3] the target is gC1q domain of human otolin-1, natural variant R339S (human).

For “gC1q domain of human otolin-1 (hOtolC1q), wild type (domain or fragment)”, the stoichiometry N (usually the number of molecules, sites or subunits per partner or assembly) in assay [1] came to 3. In assay [2], “gC1q domain of human otolin-1, natural variant Q426R (domain or fragment)” had a stoichiometry N of 3. Regarding “gC1q domain of human otolin-1, natural variant R339S (domain or fragment)”, the stoichiometry N in assay [3] was 3.
